Data on two molecules can be found in PMC6894278, “Enzymatic synthesis of L-fucose from L-fuculose using a fucose isomerase from Raoultella sp. and the biochemical and structural analyses of the enzyme” (Biotechnology for Biofuels, 2019).

Data set [1] concerns the target L-fucose isomerase from Raoultella sp. KDH14 (RdFucI) (Raoultella sp. KDH14). Put plainly: SEC; analytical size-exclusion chromatography, Superdex 200 10/300 GL, 10 mM Tris-HCl, 200 mM NaCl, pH 8.0; calibrated with standard proteins. (In gel filtration, larger molecules generally elute earlier.)
Data set [2] has the same target. Put plainly: crystal structure; six subunits in the asymmetric unit; crystals grown in 0.1 M HEPES pH 7.5, 20% (w/v) PEG 10,000 at 20 °C; also soaked with 10 mM Mn2+.
Substrate in data set [3]: O=C(CO)[C@H](O)[C@H](O)CO
The data set is described as follows: isomerase kinetics, D-ribulose to D-arabinose. Conditions: 1 mM MnCl2 (general assay); pH and temperature of the kinetics not stated in main text; pH 10.0; 40.0 °C. The class given is biochemical, Klebsiella planticola. The procedure:
isomerase kinetics, D-ribulose to D-arabinose on RdFucI | Kinetic parameters were determined using L-fuculose and D-ribulose as the substrates

One may read the stoichiometry N as the number of molecules, sites or subunits per partner or assembly. For the molecule “L-fucose isomerase from Raoultella sp. KDH14 (RdFucI) (enzyme)”, the stoichiometry N in data set [1] and in data set [2] was 6 throughout.

B1: RdFucI (Klebsiella planticola) (protein)
chain: MKRISLPKIGIRPVIDGRRMGVRESLEEQTMNMAKATAALISEKLRHASGAQIECVIADTCIAGMAESAACEEKFSSQNVGVTITVTPCWCYGSETIDMDPLRPKAIWGFNGTERPGAVYLAAALAAHSQKGIPAFSIYGHDVQDADDTTIPADVEEKLLRFARAGLAVASMKGKSYLSVGGVSMGIAGSIVDHNFFESWLGMKVQAVDMTELRRRIDQKIYDEVELEMALAWADKNFRYGEDQNAQHYKRDEEQSRAVLKESLLMAMCIRDMMQGNKKLAEKGLVEESLGYNAIAAGFQGQRHWTDQYPNGDTAEALLNSSFDWNGVREPFVVATENDSLNGVAMLMGHQLTGTAQVFADVRTYWSPDAVERVTGQPLTGLAEHGIIHLINSGSAALDGSCKQRDEEGKPTMKPHWEISQKEADACLAATEWCPAIHEYFRGGGYSSRFLTEGGVPFTMTRVNIIKGLGPVLQIAEGWSVELPKAMHDQLDARTNSTWPTTWFAPRLTGKGPFADVYSVMANWGANHGVLTIGHVGADFITLAAMLRIPVCMHNVEEGKIYRPSSWSAHGMDTEGQDYRACQNYGPLYKR
notes: N-terminal His6 tag (pET28a, NdeI/EcoRI), E. coli BL21(DE3); tag removal not mentioned; homohexamer
For orientation: Km means the concentration of substrate that gives half-maximal velocity. By kcat is commonly meant the number of substrate molecules converted per active site and unit of time at saturation. By kcat/Km is commonly meant the turnover number divided by the Michaelis constant. In the case of B1, in data set [3], the Km is 13.7 ± 1.1 mM, the kcat was found to be 138 ± 5.69 s⁻¹ and the kcat/Km is 10100 ± 493 M⁻¹ s⁻¹.
